These results are taken from publication PMC7263589, “Integration of phage and yeast display platforms: A reliable and cost effective approach for binning of peptides as displayed on-phage” (PLoS ONE, 2020).

Assay [1] has as its target T1, IL-23 (Homo sapiens, UniProt P29460+Q9NPF7).
T1 construct: made in house
T1 sequence (Q9NPF7 20-189): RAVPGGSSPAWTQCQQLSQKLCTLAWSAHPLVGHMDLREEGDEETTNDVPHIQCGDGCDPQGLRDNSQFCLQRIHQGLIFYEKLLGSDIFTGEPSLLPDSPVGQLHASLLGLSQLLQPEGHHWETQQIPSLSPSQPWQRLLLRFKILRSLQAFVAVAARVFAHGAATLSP
T1 sequence (P29460 23-328): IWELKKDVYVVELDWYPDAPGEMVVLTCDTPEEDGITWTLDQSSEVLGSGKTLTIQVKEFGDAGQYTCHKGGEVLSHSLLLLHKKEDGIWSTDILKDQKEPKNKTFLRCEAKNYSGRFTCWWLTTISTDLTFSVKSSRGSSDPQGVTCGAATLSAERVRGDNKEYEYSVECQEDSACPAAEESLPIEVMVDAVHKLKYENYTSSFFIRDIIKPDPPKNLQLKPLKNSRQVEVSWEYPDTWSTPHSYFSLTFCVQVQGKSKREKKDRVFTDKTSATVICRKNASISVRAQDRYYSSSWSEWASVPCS
Nature of the assay: SPR direct binding to captured IL-23-AVI (Biacore T200). Conditions: IL-23-AVI captured on streptavidin chip, 25°C, 1:1 binding model, n = 1, 23–447 an estimate. The protocol:
SPR (Biacore T200, GE Healthcare) was used to determine binding constants of the peptides against IL-23 and their competitiveness to IL-23R. All SPR experiments were performed at 25°C with flow rate of 50 μl/min. Assay buffer used in direct binding experiment was 10 mM HEPES pH 7.5, 150 mM NaCl, 0.005% P20, and 3% DMSO. Assay buffer used in competition experiment was 10 mM HEPES pH 7.5, 150 mM NaCl, 0.005% P20, and 1% BSA. All peptides were reconstituted first in DMSO as 10 mM stocks and then diluted into assay buffer. The proteins used in direct binding and competition SPR are described in S1 Table in S1 File. For direct binding of peptides against IL-23, 2000–9000 RU of IL-23-AVI was captured to streptavidin sensor chips (GE Healthcare, Series S Sensor Chip SA, BR-1005-31). Dilution series with 3-fold increment were prepared for each peptide. Initially, all peptides were tested up to 30 μM. Concentration range for some were then lowered accordingly based on affinity or nuisance behavior at high concentrations. SPR “multi-cycle” type was used for peptides 23–644, 23–437, 23–441, 23–446, and 23–447. Each cycle consisted of 30s of analyte injection and then 60s of buffer flow to monitor dissociation. “Single cycle kinetics” (SCK) type was used for 23–652 due to their long dissociation half-lives. Each SCK cycle consisted of five 60s injections of sample in increasing concentration with a final 600s of dissociation. To study IL-23 and IL-23R interaction, 200–1000 RU of IL-23-AVI and IL-23R-Fc-AVI were captured to streptavidin sensor chip. Dilution series with 3-fold increment of IL-23R-FLAG-HIS and IL-23-HIS were run in SCK cycle type as described above except the final dissociation time were 60-300s. Sensorgrams from the entire titration series for each sample were fitted globally to extract binding kinetics and affinity using Biacore T200 Evaluation Software 2.0 (GE Healthcare) according to a 1:1 binding model. To identify IL-23 binders that can block receptor binding, a competition SPR was established. In each SPR cycle, fresh IL-23R was capture (<1000 RU) by injecting 10 μg/ml of IL-23R-Fc-AVI to a Protein-A flow cell at 10 μl/min flow rate for 30s. Analyte consisted of a mixture of 20 nM of IL-23 protein and a single concentration of peptide was then injected for 30s at 50 μl/min to observe IL-23 binding. Finally, the Protein-A surface was regenerated by 10 mM Glycine pH 1.5 for 30s at 30 μl/min. IL-23 at 20 nM without peptide, “IL-23 only”, was used as control to quantify IL-23 binding without blockage; while “cold” IL-23R was used as a positive control for blockage.

The test system of assay [2] is IL-23 binding to IL-23R. Nature of the assay: Competition SPR: IL-23 binding to captured IL-23R-Fc-AVI in the presence of peptide. Conditions: concentration tested 0.1 μM; 20 nM IL-23, IL-23R-Fc-AVI on Protein-A, 30 s injection, 1% BSA buffer; n = 1. The protocol:
SPR (Biacore T200, GE Healthcare) was used to determine binding constants of the peptides against IL-23 and their competitiveness to IL-23R. All SPR experiments were performed at 25°C with flow rate of 50 μl/min. Assay buffer used in direct binding experiment was 10 mM HEPES pH 7.5, 150 mM NaCl, 0.005% P20, and 3% DMSO. Assay buffer used in competition experiment was 10 mM HEPES pH 7.5, 150 mM NaCl, 0.005% P20, and 1% BSA. All peptides were reconstituted first in DMSO as 10 mM stocks and then diluted into assay buffer. The proteins used in direct binding and competition SPR are described in S1 Table in S1 File. For direct binding of peptides against IL-23, 2000–9000 RU of IL-23-AVI was captured to streptavidin sensor chips (GE Healthcare, Series S Sensor Chip SA, BR-1005-31). Dilution series with 3-fold increment were prepared for each peptide. Initially, all peptides were tested up to 30 μM. […] IL-23 at 20 nM without peptide, “IL-23 only”, was used as control to quantify IL-23 binding without blockage; while “cold” IL-23R was used as a positive control for blockage.
The design of competition SPR was based on a knockdown assay (Fig 5A). […] Response levels of IL-23 plus peptide were measured post injection (Fig 5B) to avoid possible bulk RI difference between analyte and running buffer. […]

B1: IL-23R: IL23R ECD (aa 1-353) with C-terminal Flag and HIS tags produced in HEK293 cells; positive control for blockage (protein)
chain: GITNINCSGHIWVEPATIFKMGMNISIYCQAAIKNCQPRKLHFYKNGIKERFQITRINKTTARLWYKNFLEPHASMYCTAECPKHFQETLICGKDISSGYPPDIPDEVTCVIYEYSGNMTCTWNAGKLTYIDTKYVVHVKSLETEEEQQYLTSSYINISTDSLQGGKKYLVWVQAANALGMEESKQLQIHLDDIVIPSAAVISRAETINATVPKTIIYWDSQTTIEKVSCEMRYKATTNQTWNVKEFDTNFTYVQQSEFYLEPNIKYVFQVRCQETGKRYWQPWSSLFFHKTPETVPQVTSKAFQHDTWNSGLTVASISTGHLTSDNRGDIGLLLGMIVFAVMLSILSLIGIFNRSFRTGIKRRILLLIPKWLYEDIPNMKNSNVVKMLQENSELMNNNSSEQVLYVDPMITEIKEIFIPEHKPTDYKKENTGPLETRDYPQNSLFDNTTVVYIPDLNTGYKPQISNFLPEGSHLSNNNEITSLTLKPPVDSLDSGNNPRLQKHPNFAFSVSSVNSLSNTIFLGELSLILNQGECSSPDIQNSVEEETTMLLENDSPSETIPEQTLLPDEFVSCLGIVNEELPSINTYFPQNILESHFNRISLLEK
modifications: fluorescent label (dye and site not stated)
With B1, the kd in assay [1] is 0.00151 s⁻¹. In addition, the ka in assay [1] (50 μl/min, 10 mM HEPES pH 7.5, 150 mM NaCl, 0.005% P20, 3% DMSO, multi-cycle (single cycle kinetics for 23–652 and IL-23R)) is 170000 M⁻¹ s⁻¹. Moreover, the “Competition SPR %Inhibition” value in assay [2] came out at 98.0%.
